Laboratory results reported in patent publication US20250188154A1.
Where two headings read alike, the source gives them in different places.

Key:
[1] = target: SARS-CoV-2 Spike-2P stabilized S ectodomain trimer (SARS-CoV-2) (UniProt P0DTC2)
[2] = target: SARS-CoV-2 B.1.1.7 live virus spike (SARS-CoV-2) (UniProt P0DTC2); assay: cell-based or functional assay
[3] = target: SARS-CoV-2 B.1.351 live virus spike (SARS-CoV-2) (UniProt P0DTC2); assay: cell-based or functional assay
[4] = target: SARS-CoV-2 spike on live virus (Isolate USA-WA1/2020) (SARS-CoV-2) (UniProt P0DTC2); assay: cell-based or functional assay
[5] = target: SARS-CoV-2 2AA MA virus spike (SARS-CoV-2) (UniProt P0DTC2); assay: cell-based or functional assay
[6] = target: SARS-CoV-2 Spike-2P stabilized S ectodomain trimer (SARS-CoV-2) (UniProt P0DTC2); assay: ACE2 blocking, ELISA-based assay (Genscript)

Substance | IC50 [1] [µg/mL] | IC80 [1] [µg/mL] | live virus neutralization IC50 [2] [µg/mL] | live virus neutralization IC50 [3] [µg/mL] | SARS-CoV-2 neutralization IC50 [4] [µg/mL] | SARS-CoV-2 neutralization IC80 [4] [µg/mL] | SARS-CoV-2 neutralization IC90 [4] [µg/mL] | SARS-CoV-2 neutralization Minimal Effective conc. [4] [µg/mL] | live virus neutralization IC50 [5] [µg/mL] | IC50 [6] [µg/mL] | Bioqual PRNT IC50 [4] [µg/mL] | Bioqual PRNT IC90 [4] [µg/mL] | Duke RBL PRNT IC50 [4] [µg/mL] | Duke RBL PRNT IC90 [4] [µg/mL]
DH1047 (antibody) | 0.078 | 0.567 | 0.081 | 0.111 | 0.124 | 0.666 | 1.77 | 1.1 | 0.397 |  |  |  |  | 
DH1042 (antibody) | < 0.2 | 0.371 |  |  | 0.071 | 0.269 | 0.578 | 0.28 |  | < 0.2 | 0.156 | 0.625 | 0.073 | 0.625
